Values belong to the molecule of their own block, whether it stands above or below them.
Tests used:
[1] = target: T1, scrambled LAP peptide (Ac-EFDDWKYADVGLI)
T1 chain: EFDDWKYADVGLI

[2] = target: T2, LAP peptide (Ac-GFEIDKVWYDLDA-OH)
T2 chain: GFEIDKVWYDLDA

[3] = target: human urokinase plasminogen activator receptor (uPAR), biotinylated (human) (UniProt Q03405); test: BLI (Octet RED384), biotinylated human uPAR on streptavidin biosensors, Fab in solution, 1:1 model
[4] = target: T3, human urokinase plasminogen activator receptor (uPAR), biotinylated (human, UniProt Q03405 23-303); test: as above
T3 construct: also called human uPAR; biotinylated human uPAR

human uPAR = human uPAR (Homo sapiens, UniProt Q03405); test: Binding of 2G10 Fabs to uPAR measured using Octet instrument
Experimental: Measurement of 2G10-Fab-FA-LAP Affinity for uPAR: Stocks solutions were diluted to the following concentrations in 100 μL PBS: 2G10-Fab-LAP (10 μM), Lp1AΔHis (50 μM), FA (750 μM), ATP (3 mM), Mg(OAc)2 (5 mM). The resulting solution was incubated at 30° C. for 15 h and then quenched with 100 μL. 360 mM EDTA. Kinetic constants this sample, along with 2G10 and 2G10-Fab-LAP, were determined using an Octet RED384 instrument (ForteBio). Four concentrations of each Fab (500 nM, 250 nM, 100 nM and 50 nM) were tested for binding to the biotinylated antigen (human uPAR) immobilized on ForteBio streptavidin SA biosensors. All measurements were performed at room temperature in 384-well microplates and the running buffer was PBS with 0.1% (w/v) bovine serum albumin (BSA) and 0.02% (v/v) Tween 20. Biotinylated human uPAR was loaded for 180 s from a solution of 150 nM, baseline was equilibrated for 60 s, and then the Fabs were associated for 120 s followed by 300 s disassociation. Between each Fab sample, the biosensor surfaces were regenerated three times by exposing them to 10 mM glycine, pH 1.5 for 5 s followed by PBS for 5 s. Data were analyzed using a 1:1 interaction model on the ForteBio data analysis software 8.2.

Sequence of human uPAR (Q03405 23-305): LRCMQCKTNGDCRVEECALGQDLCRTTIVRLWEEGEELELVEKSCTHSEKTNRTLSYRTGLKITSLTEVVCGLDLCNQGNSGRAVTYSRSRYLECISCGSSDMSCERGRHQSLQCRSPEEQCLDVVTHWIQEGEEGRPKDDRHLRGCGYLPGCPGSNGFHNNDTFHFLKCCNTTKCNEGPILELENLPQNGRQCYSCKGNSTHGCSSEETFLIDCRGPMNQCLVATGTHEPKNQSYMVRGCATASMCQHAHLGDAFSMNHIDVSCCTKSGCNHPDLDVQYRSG
Sequence of human urokinase plasminogen activator receptor (uPAR), biotinylated (human) (Q03405 23-303 limits assumed): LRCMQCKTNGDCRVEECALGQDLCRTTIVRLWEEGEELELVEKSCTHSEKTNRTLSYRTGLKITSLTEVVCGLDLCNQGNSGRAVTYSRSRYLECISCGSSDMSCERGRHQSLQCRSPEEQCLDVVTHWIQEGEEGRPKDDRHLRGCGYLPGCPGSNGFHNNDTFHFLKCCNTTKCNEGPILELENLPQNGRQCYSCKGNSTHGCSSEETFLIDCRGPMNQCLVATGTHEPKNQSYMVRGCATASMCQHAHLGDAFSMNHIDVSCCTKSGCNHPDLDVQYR

B1: LplA-His6 (E. coli lipoic acid ligase) (protein)
chain: MSTLRLLISDSYDPWFNLAVEECIFRQMPATQRVLFLWRNADTVVIGRAQNPWKECNTRRMEEDNVRLARRSSGGGAVFHDLGNTCFTFMAGKPEYDKTISTSIVLNALNALGVSAEASGRNDLVVKTTEGDRKVSGSAYRETKDRGFHHGTLLLNADLSRLANYLNPDKKKLAAKGITSVRSRVTNLTELLPEITHEQVCEAIREAFFAHYGERVEAEIISPDKTPDLPNFAETFARQSSWEWNFGQAPAFSHLLDERFTWGGVELHFDVEKGHITRAQVFTDSLNPAPLEALAGRLQGCLYRADMLQQECEALLVDFPEQEKELRELSTWIAGAVR
Yield/% (radio-TLC conjugation yield of [18F]-FA) [1]: 0% | conjugation of FA to peptide, RP-HPLC [1]: No productive reaction was observed after 60 minutes | Yield/% (radio-TLC conjugation yield of [18F]-FA) [2]: 91% | conversion of LAP to [19F]-FA-LAP, RP-HPLC [2]: complete at 30 minutes

Kd [3]: 31 nM
B2: 2G10-Fab-LAP (Fab, V domains shown)
VH: QVQLQQSGPGLVKPSQTLSLTCAISGDSVSSNSAAWNWIRQSPSRGLEWLGRTYYRSKWYNDYAVSVKSRIIINPDTSKNQFSLQLNSVTPEDTAVYYCARDPGGPLDDSFDIWGQGTMVTVSS
VL: DVVMTQSPLSLPVTPGEPASISCRSSQSLLRSNGYNYLDWYLQKPGQSPQLLIYLGSIRASGVPDRFSGSGSGTDFTLRISRVEAEDVGVYYCMQALQTPFTFGQGTKLEIKR

Kd [4]: 38 nM
B3: 2G10-Fab (Fab, V domains shown)
VH: B2 VH
VL: B2 VL

Kd (human uPAR; Octet RED384, biotinylated human uPAR on streptavidin biosensors, room temperature, 1:1 interaction model, read-out: KD (nM), dissociation constants for 2G10-Fabs with uPAR): 31 ± 2.2 nM
B4: 2G10-Fab-LAP: 2G10 Fab with the LAP peptide sequence inserted at the C-terminus of the heavy chain (antibody)
heavy: QVQLQQSGPGLVKPSQTLSLTCAISGDSVSSNSAAWNWIRQSPSRGLEWLGRTYYRSKWYNDYAVSVKSRIIINPDTSKNQFSLQLNSVTPEDTAVYYCARDPGGPLDDSFDIWGQGTMVTVSSASTKGPSVFPLAPSSKSTSGGTAALGCLVKDYFPEPVTVSWNSGALTSGVHTFPAVLQSSGLYSLSSVVTVPSSSLGTQTYICNVNHKPSNTKVDKKVEPKSCAAHHHHHHAAGFEIDKVWYDLDA
light: DVVMTQSPLSLPVTPGEPASISCRSSQSLLRSNGYNYLDWYLQKPGQSPQLLIYLGSIRASGVPDRFSGSGSGTDFTLRISRVEAEDVGVYYCMQALQTPFTFGQGTKLEIKRTVAAPSVFIFPPSDEQLKSGTASVVCLLNNFYPREAKVQWKVDNALQSGNSQESVTEQDSKDSTYSLSSTLTLSKADYEKHKVYACEVTHQGLSSPVTKSFNRGEC
differences in binding affinity for uPAR between the Fabs (human uPAR; Octet, after bioconjugation with excess [19F]-FA): No significant differences in binding affinity
